Source: article PMC9418295, “Characterization of proteins from the 3N5M family reveals an operationally stable amine transaminase” (Applied Microbiology and Biotechnology, 2022)

Tests used:
Experiment in all cases: native gel or EMSA + SEC; native PAGE without SDS (7.5% separating gel, running buffer 0.05 M Tris, 0.038 M glycine, pH 8.3) against the standards TA-3HMU and TA-3FCR (dimers), catalase and TA-3N5M (tetramers); SEC on HiPrep 16/60 Sephacryl S-100 HR in 50 mM sodium phosphate pH 8.0; subunit size by SDS-PAGE
[1] = molecular target: TA-5, putative transaminase from Halomonas elongata (Halomonas elongata)
[2] = molecular target: TA-9, putative transaminase from Burkholderia cepacia (Burkholderia cepacia)
[3] = molecular target: TA-10, amine transaminase from Burkholderia multivorans (Burkholderia multivorans)
[4] = molecular target: the molecule itself

Question: With “TA-5, putative transaminase from Halomonas elongata (enzyme)” as the molecule, how does the stoichiometry N [1] read?
Answer: 4

Question: With “TA-9, putative transaminase from Burkholderia cepacia (enzyme)” as the molecule, how does the stoichiometry N [2] read?
Answer: 4

Question: “TA-10, amine transaminase from Burkholderia multivorans (enzyme)” was tested. Which stoichiometry N [3] did it give?
Answer: 4

B1: TA-1, taurine transaminase from Bilophila wadsworthia (enzyme, UniProt Q9APM5 1-456, looked up)
chain: MTYDKAELVALDKKYVWHHLTQHKNFEPAIYVKGEGMRITDIDGKTYLDAVSGGVWTVNVGYGRKEIVDAVAKQMMEMCYFANGIGNVPTIKFSEKLISKMPGMSRVYLSNSGSEANEKAFKIVRQIGQLKHGGKKTGILYRARDYHGTTIGTLSACGQFERKVQYGPFAPGFYEFPDCDVYRSKFGDCADLGVKMAKQLEEVILTVGPDELGAVIVEPMTAGGGILVPPAGYYETIREICDKYELLLIIDEVVCGLGRTGKWFGYQHFNVQPDIVTMAKGVASGYAPISCTVTTEKVFQDFVNDPADTDAYFRDISTFGGCTSGPAAALANIEIIERENLLENCTKMGDRLLEGLKGLMAKHPIIGDVRGKGLFAGIEIVKDRATKEPIAEAVANAMVGAAKQAGVLIGKTSRSFREFNNTLTLCPALIATEADIDEIVAGIDKAFTTVEQKFGL
notes: TA-1, taurine-pyruvate transaminase, Bilophila wadsworthia; codon-optimized gene subcloned with NdeI and BamHI into pET22b or pET28b; Purified and stored with PLP as cofactor; also called taurine-pyruvate transaminase; source: E. coli BL21, purified (Ni-NTA, desalting)
Question: How did the “stoichiometry N” value [4] turn out when B1 was run?
Answer: 4
